B1: Transitional endoplasmic reticulum ATPase, residues 26 to 106; numbered along this chain, P55072 (parent)
chain: LIVDEAINEDNSVVSLSQPKMDELQLFRGDTVLLKGKKRREAVCIVLSDDTCSDEKIRMNRVVRNNLRVRLGDVISIQPCP

Variants of: B1
Assay: abundance fitness (aPCA) (normalised: wild type 0, dead -1); higher = more abundant; growth selection in yeast, the domain comes from the species named
Conditions: Homo sapiens

Abundance fitness of substitutions, site by site:
R58: S -0.253; H -0.246; E -0.376; V -0.521; Q -0.185; L -0.037; T -0.515; Y -0.093; F -0.216; K -0.013; C -0.255; M -0.068; P -0.927; G -0.156; I -0.089; W -0.625
D54: G -0.075; V -0.016; H -0.073; F -0.112; N -0.072; I -0.106; R -0.205; T 0.218; C -0.089; W -0.289; Q -0.279; M 0.006; K 0.08; E -0.062; A -0.076; P -0.116
V62: C 0.029; I 0.011; K 0.003; D 0.004; A -0.04; H 0.038; P -0.378; S 0.051; W -0.028; G 0.025; N 0.109; Y -0.195; R -0.013; L 0.005; F -0.023; M 0.022
L71: S -0.004; Q -0.028; F -0.184; P -0.083; M -0.002; D -0.086; V -0.048; A 0.114; R -0.102; E 0.07; K -0.026; N 0.103; Y -0.391; T 0.083; I 0.045; C -0.112; G 0.009
V63: C 0.031; L 0; E -0.223; T 0.072; W -0.342; F -0.061; P -0.896; R -0.445; K -0.433; M -0.095; I 0.029; D 0.029; G -0.253; N -0.276; A 0.054
V69: R -0.665; H -1; I -0.022; Y -0.781; W -0.987; C 0.067; G -0.886; K -0.514; F -0.717; A -0.045; Q -0.689; P -1.03; T -0.12; M -0.032; S -0.255
V74: C -0.039; A 0.031; D -0.022; E 0.051
K56: A 0.018; R -0.012; S 0.034; I 0.013; Q 0.067; F -0.127; C 0.027; M -0.112; P -0.971; G 0.008; W -0.35; N 0.111; L -0.047; Y -0.022; E -0.088; D -0.271; T 0.091; V -0.021; H -0.183
R64: F -0.212; A -0.023; M -0.036; P -1.06; V -0.321; W -0.684; G -0.638; T -0.381; S -0.303; H -0.415; L -0.044; I -0.061; E -0.65; Q -0.105; K -0.365; N -0.458; C -0.227
E55: M -0.143; A -0.019; T -0.03; K -0.03; H -0.041; W -0.148; Q 0.003; F -0.052; D -0.174; S 0.01; C 0.002; Y -0.029; G 0.018; V -0.053; P -0.075; L 0.003
R61: Y -0.059; T -0.009; F -0.158; D -0.024; Q -0.036; C 0.005; N -0.091; A 0.059; M -0.178; K 0.079; G -0.025; I -0.026; V -0.005; S -0.024; P -0.003; H -0.157; W -0.119; L -0.006
N60: H -0.045; F -0.889; G -0.065; Y -0.811; V -0.418; Q -0.307; L -0.756; D -0.077; S 0.085; T -0.019; M -0.552; A -0.009; C -0.182; I -0.681; R -0.325; E -0.266; W -0.899; P -0.046
N65: P -0.926; Q -0.075; F -0.116; E -0.02; W -0.157; R -0.044; H -0.038; V -0.131; M -0.054; T -0.07; G -0.066; L -0.074; C -0.106; Y -0.14; D 0.017; A -0.026; S 0.025
D73: Q 0.004; M -0.391; K -0.309; L -0.922; S -0.012; T -0.252; C -0.343; F -0.861; I -0.655; N -0.102; P -0.915; W -0.412; H -0.135; V -0.949; R -0.715
S53: R -0.035; T -0.019; Q 0.033; W -0.22; V -0.022
N66: W -0.255; K 0.086; M -0.04; T 0.007; A -0.071; F -0.263; L -0.012; V -0.104; H -0.314; E 0.042; P -0.952; S -0.044; G -0.021; C -0.374; Y -0.176; I -0.151
G72: Q -0.424; E -0.23; P -0.891; Y -0.256; W -0.363; A -0.271; N -0.043; K -0.317; M -0.392; L -0.42; S -0.278; D -0.187; C -0.453; R -0.177; T -0.037; F -0.336; H -0.257
R68: P -0.891; N -0.123; S 0.068; M 0.01; D -0.064; L -0.033; V -0.124; T -0.14; F -0.165; I -0.588; Q -0.119; C -0.114; H -0.009; K 0.122; E 0.047; W -0.169; Y 0.274
L67: M -0.247; I -0.057; N -0.757; E -0.853; R -0.956; G -0.896; D -0.823; V -0.35; P -0.789; F -0.411; W -0.976; S -0.893; A -0.601; C -0.175; T -0.693
M59: P -1.12; K -1.03; W -0.99; S -0.817; T -0.275; V -0.166; A -0.258; F -0.333; E -0.768; C -0.066; G -1.01; I -0.002; R -1.08
I57: E -0.804; W -0.848; C -0.492; G -0.951; K -0.931; Q -0.816; L -0.224; A -0.356; N -0.716; V -0.019; T -0.622; M -0.198; R -0.931; P -0.933; S -0.861
R70: M -0.077; T 0.017; A 0.043; N -0.101; F -0.184; H -0.152; D -0.091; Y 0.005; L 0.037; P -0.327; I -0.242; E 0.106; W -0.127; S 0.036; V -0.076; Q -0.157; G 0.049

From the Human Domainome abundance scans (Beltran et al. 2025)
